The source of these data is paper PMC9191634.

“And” between values parts separate entries of the source, which are not always exact repeats. Identical values can stand only once. Bounds are passed on as bounds.

One test deals with hHv1-G199C (human) (UniProt Q96D96). Briefly: whole-cell patch clamp (block of H+ current).
Another test addresses hHv1-L203C (human) (UniProt Q96D96). Briefly: whole-cell patch clamp (block of H+ current).
Test [1] addresses human voltage-gated proton channel hHv1 (human) (UniProt Q96D96). Briefly: whole-cell patch clamp (block of H+ current).
The next test has as its target hHv1-E192C (human) (UniProt Q96D96). Briefly: whole-cell patch clamp (block of H+ current). (In patch-clamp work, channel activity is measured electrically.)
The next test deals with hHv1-H193C (human) (UniProt Q96D96). Briefly: whole-cell patch clamp (block of H+ current).
The target of a further test is hHv1-R211S (human) (UniProt Q96D96). Briefly: whole-cell patch clamp (block of H+ current).
A further test deals with hHv1-R205N (human) (UniProt Q96D96). Briefly: whole-cell patch clamp (block of H+ current).
The target of the next test is hHv1-E196C (human) (UniProt Q96D96). Briefly: whole-cell patch clamp (block of H+ current).
The target of another test is hHv1-L200C (human) (UniProt Q96D96). Briefly: whole-cell patch clamp (block of H+ current).
In the next test the target is hHv1-V187C (human) (UniProt Q96D96). Briefly: whole-cell patch clamp (block of H+ current).
The target of the next test is hHv1-D185C (human) (UniProt Q96D96). Briefly: whole-cell patch clamp (block of H+ current).
In test [2] the target is human voltage-gated proton channel hHv1 (human) (UniProt Q96D96). Briefly: whole-cell patch clamp (block of H+ current); as a1 but test pulses to +20 mV.
The target is the same in test [3].
For test [4], the target named is human voltage-gated proton channel hHv1, Q96D96-1. Briefly: whole-cell patch clamp. Particulars: +40 mV; HEK293T cells; parent: 0.031 ± 0.003 µM.
The target of another test is C6 peptide. Briefly: whole-cell patch clamp. The settings on record: +40 mV, HEK293T cells; for ratio to parent: parent: est. 1.0, read off a plot.

A word on the Ki: it is a measure of affinity in units of concentration, obtained from inhibition or displacement. Broadly, the kon is a measure of how fast the partners come together. Low values mean slow association, high ones fast association. The koff is the first-order rate constant of dissociation. Higher therefore signals a short-lived complex. Take C6 peptide (designed binder): the Ki turned out to be 1.9 nM with hHv1-G199C (human), 0.6 nM with hHv1-R211S (human), 161 nM with hHv1-R205N (human) and 4.9 nM in test [2]. Further, the fold enhancement of C6 inhibition against WT hHv1 with hHv1-L203C (human) and with hHv1-D185C (human) was greater than 4 fold each time. Also, the kon in [1] is 300000 M⁻¹ s⁻¹ and 500000 M⁻¹ s⁻¹; with hHv1-R211S (human) it was 500000 M⁻¹ s⁻¹; with hHv1-R205N (human) it was 300000 M⁻¹ s⁻¹; in test [2], 400000 M⁻¹ s⁻¹. For the same substance, the Ki mutation/Ki WT with hHv1-E192C (human), with hHv1-H193C (human), with hHv1-E196C (human), in the test with hHv1-L200C (human) and in the test with hHv1-V187C (human) was greater than 43 fold each time. The values for the koff (in the test with hHv1-R211S (human); with hHv1-R205N (human); in test [2]) were 0.0008 s⁻¹, 0.19 s⁻¹ and 0.0043 s⁻¹, respectively. The substance also registered a fraction of H+ current blocked by 250 nM C6, whole-cell patch clamp in HEK293T cells, -20 mV to +40 mV in test [3] of 90%.

In the case of C6 peptide R36A, the Ki in [4] was found to be 15000 nM. On to “human voltage-gated proton channel hHv1 (from UniProt Q96D96-1) A197C”, for which the ratio to parent with C6 peptide stood at 7.6.

As for “human voltage-gated proton channel hHv1 (from UniProt Q96D96-1) E192A”, the Ki with C6 peptide (parent: 0.031 ± 0.003 µM) is 18000 nM. As to “human voltage-gated proton channel hHv1 (from UniProt Q96D96-1) F190C”, the ratio to parent with C6 peptide turned out to be 0.62. Same read-out and setting: with “human voltage-gated proton channel hHv1 (from UniProt Q96D96-1) F195C” the figure was 3.6. As to “human voltage-gated proton channel hHv1 (from UniProt Q96D96-1) I183C”, the ratio to parent with C6 peptide amounted to 1.1. Still for that read-out and setting: for “human voltage-gated proton channel hHv1 (from UniProt Q96D96-1) I186C” the value was 1.4; for “human voltage-gated proton channel hHv1 (from UniProt Q96D96-1) I202C”, 30. Same read-out and setting: for “human voltage-gated proton channel hHv1 (from UniProt Q96D96-1) L184C” the value was 22; for “human voltage-gated proton channel hHv1 (from UniProt Q96D96-1) L188C”, 11; for “human voltage-gated proton channel hHv1 (from UniProt Q96D96-1) L189A”, 0.87. Regarding “human voltage-gated proton channel hHv1 (from UniProt Q96D96-1) L198C”, in the test with C6 peptide, the ratio to parent was 1.4. Regarding “human voltage-gated proton channel hHv1 (from UniProt Q96D96-1) L201C”, the ratio to parent with C6 peptide stood at 3.6. On the same count and under the same terms, with “human voltage-gated proton channel hHv1 (from UniProt Q96D96-1) L203A” the figure was 0.28. On the same count and under the same terms, with “human voltage-gated proton channel hHv1 (from UniProt Q96D96-1) L204C” the figure was 2.3; with “human voltage-gated proton channel hHv1 (from UniProt Q96D96-1) Q191C”, 8.7.

As to “human voltage-gated proton channel hHv1 (from UniProt Q96D96-1) Q194C”, the ratio to parent in the test with C6 peptide came out at 6. For the substance “human voltage-gated proton channel hHv1 (from UniProt Q96D96-1) V187A”, in the test with C6 peptide, the ratio to parent was 130.
